According to the RNAGym collection of RNA variant scans (doi:10.7554/elife.80360):

B1: CPEB3 Ribozyme (parent)
chain: GGGGGCCACAGCAGAAGCGUUCACGUCGCGGCCCCUGUCAGAUUCUGGUGAAUCUGCGAAUUCUGCUGU

Variants of: B1
Test: self-cleavage, relative activity (ratio to wild type); higher = more cleavage; co-transcriptional

Variant	self-cleavage
A8G C18U	0.207
A8G G30U	0.335
A8G G30C	0.602
A8G G30A	0.861
A8C G47A	1.02
A8G C32A	0.701
A8U A52G	1.03
A8U A52U	0.986
A8G U43A	0.401
A8G U43G	0.398
A8U C18G	0.142
A8U C18A	0.177
A8U A15U	0.882
A8U A15G	0.998
A8U C29G	0.183
A8U C29U	0.84
A8G U55G	0.134
A8G U55C	0.282
A8C C66G	0.871
A8C C66U	1.02
A8U A42C	0.972
A8U A42U	0.995
A8U C9G	1.01
A8U C9U	1.02

Variant	self-cleavage
A8U A51U	0.999
A8U A51G	1
A8C C9A	1.01
A8C C9G	0.922
A8C C9U	1.01
A8C C54U	1
A8C C54G	0.876
A8U G28C	0.101
A8C C12G	0.798
A8C C12U	0.981
A8G G31U	0.649
A8G G31A	0.865
A8C A42U	0.918
A8C A42G	0.939
A8C A52G	0.974
A8C A52C	0.941
A8U C54A	0.857
A8U C54U	1.03
A8U C54G	0.919
A8G A59C	0.162
A8G A59U	0.401
A8G A59G	0.897
A8G A23U	0.858
A8G A23G	0.623

Variant	self-cleavage
A8G U26C	0.325
A8G U26G	0.622
A8G U26A	0.644
A8G A60G	0.393
A8G A60U	0.25
A8C A23C	0.907
A8C A23G	0.997
A8C A23U	1.01
A8C C27A	0.555
A8C C27G	0.112
A8C C63A	0.76
A8C C63U	0.972
A8C U69G	1.04
A8C U69A	1.01
A8C G48C	1.02
A8C G48U	1.02
A8G G37C	0.123
A8G U38C	0.696
A8G C34G	0.665
A8G C45A	0.8
A8G C45U	0.8
A8G G25U	0.1
A8G G25A	0.113
A8G G25C	0.0474

Variant	self-cleavage
A8C C18G	0.186
A8C C18U	0.88
A8C U38C	0.9
A8G A42G	0.536
A8G A42C	0.59
A8G A42U	0.622
A8U C35A	0.257
A8U C35U	1.01
A8G C57G	0.203
A8G C57A	0.126
A8C A15U	0.873
A8C A15C	0.726
C7U U62G	0.595
A8C G31C	0.267
A8C G31U	0.664
A8C A16G	0.962
A8C A16U	0.843
A8C A16C	0.325
A8U A13G	1.02
A8U A13C	0.855
A8C G58A	0.944
A8G G19U	0.0891
A8G G19C	0.161
A8G G11C	0.0914

Variant	self-cleavage
A8G G11A	0.26
A8G G11U	0.189
A8C A40G	0.958
A8C A40U	0.868
A8U C34U	0.985
A8U C34A	0.854
A8U C34G	0.718
A8U G25A	0.179
A8U G25C	0.0896
A8U A40C	0.639
A8U A40U	0.781
A8U A10U	0.998
C7U U69C	1.06
C7U U69A	1.02
C7U U69G	1.03
A8G G17C	0.0831
A8G G17A	0.0671
A8G G17U	0.103
A8U A16C	0.309
A8U A16U	0.867
A8U A16G	0.947
A8G G56A	0.562
A8G G56U	0.446
A8G G56C	0.233

Variant	self-cleavage
A8C U36C	0.819
A8C U36G	0.192
A8C U36A	0.205
A8C U53A	0.919
A8C U53C	0.902
A8C U53G	0.89
A8C C33A	0.897
A8C C33G	0.527
A8C U21C	0.854
A8C G11U	0.768
A8C G11C	0.779
A8C G11A	0.923
A8U C45U	1.03
A8U C33G	0.685
A8C U46A	0.981
A8C U46C	0.979
A8C G68U	1.02
A8C G68C	1
A8G A13U	0.0712
A8C U61G	0.937
A8C U61C	0.776
A8C U20A	0.114
A8C U20C	0.166
A8G C24G	0.15

Variant	self-cleavage
A8G C24A	0.446
A8G C24U	0.174
A8C A60G	0.953
A8C A60U	0.413
A8C A60C	0.382
A8C G56C	0.83
A8C G56A	0.999
A8G G65A	0.224
A8U C39G	0.988
A8U C39A	0.864
A8G C12G	0.133
A8G C12U	0.444
A8G C12A	0.175
A8C G28U	0.154
A8C G28C	0.122
A8C U64G	0.892
A8C U64C	0.86
A8U G14U	0.785
A8U G14A	0.827
A8C U44A	0.944
A8C U44C	0.896
A8C G41U	0.78
A8C G41A	0.89
